Publication PMC4225172
pEC50, pKd: −log10 of the molar value.

Key:
[1] = target: BoLA-1*02301 (D18.4) heavy chain folded with recombinant human β2m (cattle (Holstein) | human) (UniProt P61769); assay: AlphaScreen or HTRF
[2] = target: BoLA-3*00201 (JSP.1) heavy chain folded with recombinant human β2m (cattle (Holstein) | human) (UniProt P61769); assay: AlphaScreen or HTRF
[3] = target: BoLA-2*01201 (T2A) heavy chain folded with recombinant human β2m (cattle (Holstein) | human) (UniProt P61769); assay: AlphaScreen or HTRF
[4] = target: BoLA-2*01201 (T2A) heavy chain folded with 125I-radiolabeled bovine met-β2m (cattle (Holstein) | bovine) (UniProt P01888); assay: scintillation proximity assay
[5] = target: BoLA-T2C heavy chain folded with recombinant human β2m (cattle (Bos taurus×Bos indicus) | human) (UniProt P61769); assay: AlphaScreen or HTRF
[6] = target: BoLA-3*00201 (JSP.1) heavy chain folded with 125I-radiolabeled bovine met-β2m (cattle (Holstein) | bovine) (UniProt P01888); assay: scintillation proximity assay
[7] = target: BoLA-3*00101 (AW10) heavy chain folded with 125I-radiolabeled bovine met-β2m (cattle (Boran) | bovine) (UniProt P01888); assay: scintillation proximity assay
[8] = target: BoLA-1*02301 (D18.4) heavy chain folded with 125I-radiolabeled bovine met-β2m (cattle (Holstein) | bovine) (UniProt P01888); assay: scintillation proximity assay

Ta9 epitope […] (peptide) gave a pKd [1] of 7.13 and a pKd [2] of 6.51.

Substance Tp2 49–59 epitope […] (peptide) has a pEC50 [3] of 6.44 and a half-life of the pBoLA-I complex [4] of 2 h.

Work on Tp2 96–104 epitope […] (peptide) yielded a pEC50 [5] of 6.84, a pEC50 [2] of 6.12 and a half-life of the pBoLA-I complex [6] of 4 h.

Tp2 98–106 epitope […] (peptide) was tested, and the half-life of the pBoLA-I complex [4] was 3 h.

In the case of Tp4 328–336 epitope … (peptide), the half-life of the pBoLA-I complex [6] was 2 h and the half-life of the pBoLA-I complex [7] was 23 h.

For Tp5 87–95 epitope … (peptide), the half-life of the pBoLA-I complex [8] was 18 h.

Tp8 379–387 epitope […] (peptide) was tested, and the half-life of the pBoLA-I complex [6] was 2 h and the half-life of the pBoLA-I complex [7] was 14 h.

Substance Tp9 199–228 epitope […] (peptide) has a half-life of the pBoLA-I complex [8] of 4 h.
